Measurements: patent US20260055383

What was measured:
Experiment in all cases: cell_activity
[1] = tested on: B2M right 12 bp TAL-ssSPB (synthetic construct); conditions: paired with left 14 bp; replicate 7.46
[2] = tested on: B2M right 15 bp TAL-ssSPB (synthetic construct); conditions: paired with left 14 bp; replicate 4.79
[3] = tested on: B2M right 20 bp TAL-ssSPB (synthetic construct); conditions: paired with left 14 bp; replicate 5.61
[4] = tested on: B2M right 11 bp TAL-ssSPB (synthetic construct); conditions: paired with left 14 bp; replicate 8.87
[5] = tested on: PBx (excision-only piggyBac transposase) (synthetic construct); conditions: HEK293T, LINE1 integration 0
[6] = tested on: B2M right 16 bp TAL-ssSPB (14 bp spacing) (synthetic construct); conditions: paired with left 14 bp; replicate 7.76
[7] = tested on: B2M right 17 bp TAL-ssSPB (13 bp spacing) (synthetic construct); conditions: paired with left 14 bp; replicate 4.52
[8] = tested on: B2M left 10 bp TAL-ssSPB (synthetic construct); conditions: paired with right 12 bp; replicate 5.48
[9] = tested on: B2M left 14 bp TAL-ssSPB (synthetic construct); conditions: paired with right 11 bp; replicate 8.87
[10] = tested on: B2M left 9 bp TAL-ssSPB (synthetic construct); conditions: paired with right 10 bp; replicate 4.54
[11] = tested on: B2M right 19 bp TAL-ssSPB (synthetic construct); conditions: paired with left 14 bp; replicate 6.05
[12] = tested on: B2M right 9 bp TAL-ssSPB (synthetic construct); conditions: paired with left 10 bp; replicate 5.72
[13] = tested on: LINE1 R2.2 TAL-ssSPB K500R K500R (synthetic construct); conditions: excision 33.92
[14] = tested on: LINE1 R2.2 TAL-ssSPB M226F M226F (synthetic construct); conditions: excision 45.14
[15] = tested on: LINE1 R2.2 TAL-ssSPB S301A S301A (synthetic construct); conditions: excision 39.72
[16] = tested on: TAL-ssSPB off-target (not specific for LINE1) (synthetic construct); conditions: off-target control; excision 34.56
[17] = tested on: B2M right 18 bp TAL-ssSPB (synthetic construct); conditions: paired with left 14 bp; replicate 7.49
[18] = tested on: B2M left 13 bp TAL-ssSPB (synthetic construct); conditions: paired with right 12 bp; replicate 8.38
[19] = tested on: B2M right 16 bp TAL-ssSPB (13 bp spacing) (synthetic construct); conditions: paired with left 14 bp; replicate 7.18
[20] = tested on: B2M right 10 bp TAL-ssSPB (synthetic construct); conditions: paired with left 9 bp; replicate 4.54
[21] = tested on: B2M right 17 bp TAL-ssSPB (14 bp spacing) (synthetic construct); conditions: paired with left 14 bp; replicate 5.14

TCTGAGCTTCTAA (double strand) [B2M right 12 bp target]
activity (% B2M alleles edited) [1]: 6.8

TGCATCTGAGCTTCTA (double strand) [B2M right 15 bp target]
activity (% B2M alleles edited) [2]: 6.25

TCTTTGCATCTGAGCTTCTAA (double strand) [B2M right 20 bp target]
activity (% B2M alleles edited) [3]: 4.65

TCTGAGCTTCTA (double strand) [B2M right 11 bp target]
activity (% B2M alleles edited) [4]: 7.63

CCCTAGAAAGATAGTCTGCGTAAAATTGACGCATG (double strand) [Symmetrical ITR 0 bp]
activity (% GFP positive cells) [5]: 91

TTGCATCTGAGCTTCTA (double strand) [B2M right 16 bp target, 14 bp spacing]
activity (% B2M alleles edited) [6]: 6.39

TTGCATCTGAGCTTCTAA (double strand) [B2M right 17 bp target, 13 bp spacing]
activity (% B2M alleles edited) [7]: 5.66

CCCTAGAAAGATAATCATGCGTAAAATTGACGCATG (double strand) [Symmetrical ITR 1bpSNP]
activity (% GFP positive cells) [5]: 91.3

TCTGTGCTCTG (double strand) [B2M left 10 bp target]
activity (% B2M alleles edited) [8]: 6.02

TGAATCTGTGCTCTG (double strand) [B2M left 14 bp target]
activity (% B2M alleles edited) [9]: 7.63

TCTGTGCTCT (double strand) [B2M left 9 bp target]
activity (% B2M alleles edited) [10]: 5.38

TCTTTGCATCTGAGCTTCTA (double strand) [B2M right 19 bp target]
activity (% B2M alleles edited) [11]: 5.45

TGAGCTTCTA (double strand) [B2M right 9 bp target]
activity (% B2M alleles edited) [12]: 5.73

TTGTCTCTTTT (double strand) [LINE1 R2.2 right target]
activity (% mScarlet positive cells) [13]: 19.1
activity (% mScarlet positive cells) [14]: 21.6
activity (% mScarlet positive cells) [15]: 20.2
activity (% mScarlet positive cells) [16]: 0.29

TTTGCATCTGAGCTTCTAA (double strand) [B2M right 18 bp target]
activity (% B2M alleles edited) [17]: 5.76

TGAATCTGTGCTCT (double strand) [B2M left 13 bp target]
activity (% B2M alleles edited) [18]: 6.55

CCCTAGAAAGATAGTCTGCGTAAAATTGACGCATG / CCCTAGAAAGATAATCATATTGTGACGTACGTTAAAGATAATCATGCGTAAAATTGACGCATG [WT transposon ITRs (35 bp LE / 63 bp RE)]
activity (% GFP positive cells) [5]: 98.8

TGCATCTGAGCTTCTAA (double strand) [B2M right 16 bp target, 13 bp spacing]
activity (% B2M alleles edited) [19]: 6

TGAGCTTCTAA (double strand) [B2M right 10 bp target]
activity (% B2M alleles edited) [20]: 5.38

TTTGCATCTGAGCTTCTA (double strand) [B2M right 17 bp target, 14 bp spacing]
activity (% B2M alleles edited) [21]: 4.96
